Residue numbers refer to the chain shown, from its start. Numbers in names are those of the source. A value given as a limit tells only on which side of the number the result lay.

To fix the notation:
B1: PA2LR3-P4C6 (chimeric) (antibody, V domains shown)
VH: EVQLQQSGAELVRPGSSVKISCKASGYAFSYYWMNWVKQRPGQGLEWIGQIYPGDGDTNYNGKFKGKATLTADKSSSTAYMQLSSLTSEDSAVYFCARSHGNYFPYWGQGTLVTVSA
VL: DIVITQSPAIVSASLGERVTMTCTASSSVSSSYLHWYQQKPGSSPKLWIYSTSNLASGVPARFSGSGSGTSYSLTISSMEAEDAATYYCQQWSSYPLTFGAGTKLEIKR
B2: PA2LR3-P3B10 (chimeric) (antibody, V domains shown)
VH: B1 VH
VL: B1 VL
B3: PA2LR3-P2D3 (chimeric) (antibody, human IgG1, kappa, V domains shown)
VH: B1 VH with N102S, P105A
VL: DIELAQSPASLAVSLGQRATISCRASESVDSYGNSFMHWYQQKPGQPPKLLIYLASNLESGVPARFSGSGSRADFTLTIDPVEADDAATYYCLQYASSPPTFGAGTKLEIKR
B4: PA2LR3-P4B1 (chimeric) (antibody, human IgG1, kappa, V domains shown)
VH: B1 VH with Y27F, Y31N, Y60F, K67R, T69I, K74I, S77N
VL: B1 VL with D1Q, I4L, V11M, Q90H, W92Y, S93H, S94R, Y95S, I107L
B5: PA2LR3-P4G10 (chimeric) (antibody, V domains shown)
VH: B1 VH with S7F, P105A
VL: B1 VL with I4L, V11M, Y95N, I107L
B6: PA2LR3-P1H4 (chimeric) (antibody, V domains shown)
VH: B1 VH with A28V, S30G, Y31N
VL: B1 VL with D1Q, I4L, V11M, I107L
B7: PA2LR3-P1G6 (chimeric) (antibody, V domains shown)
VH: B1 VH with A72V, P105A
VL: B1 VL with I4L, T5S, V11M, S78R, I107L
B8: PA2LR3-P3B8 (chimeric) (antibody, V domains shown)
VH: B1 VH with Y27F, Y31N, Y60F, K67R, T69I, K74I, S77N
VL: B1 VL with I4M, V11M, S51G, A61V, I107L
B9: PA2LR3-P2E5 (chimeric) (antibody, V domains shown)
VH: B1 VH with S30R, Y31D, D57A, N61I, Q109H
VL: B1 VL with D1Q, I4L, V11M, I107L
B10: PA2LR3-P2B8 (chimeric) (antibody, V domains shown)
VH: B1 VH with P105A
VL: B1 VL with I4M, V11M, V29I, Q90H, W92Y, S93H, S94R, Y95S, T98A, I107L
B11: PA2R3-P1F1 (chimeric) (antibody, V domains shown)
VH: EVQLQQSGAELMKPGASVKISCKATGYTFSSYWIEWVKQRPGHGLEWIGEILPGSGSTNYNEKFKGKATFTADTSSNTAYMQLSSLTSEDSAVYYCARGAWLLSYWYFDVWGAGTSVTVSS
VL: DIQMMQSTSSLSASLGDRVTISCSASQGISNYLNWYQQKPDGTVKLLIYYTSSLHSGVPSRFSGSGSGTQFSLKINSLQPEDFGSYYCQHHYGTPYTFGGGTKLELKR
B12: P1C4-h2-IgG1 (antibody)
heavy: not shown
light: EIVLTQSPATLSLSPGERATLSCRASQSVSSSYLHWYQQKPGQAPRLLIYSTSNLASGIPARFSGSGSGTDFTLTISRLEPEDFAVYYCHQYHRSPPTFGQGTKVEIKRTVAAPSVFIFPPSDEQLKSGTASVVCLLNNFYPREAKVQWKVDNALQSGNSQESVTEQDSKDSTYSLSSTLTLSKADYEKHKVYACEVTHQGLSSPVTKSFNRGEC
notes: also called P1C4-H2 (YE); P1C4-H2 (YE)-IgG
B13: P1C4-h4-IgG1 (antibody)
heavy: not shown
light: B12 light
notes: also called P1C4-H4 (YENG); P1C4-H4 (YENG)-IgG
B14: RY-HL-LC-A12 FACS4 (IgG4 S228P) (antibody, V domains shown)
VH: QVQLVQSGAEVKKPGSSVKVSCKASGYEFSYYWMNWVRQAPGQGLEWMGQIYPGDGETKYAQKFQGRVTITADKSTSTAYMELSSLRSEDTAVYYCARSHGNYLPYWGQGTLVTVSS
VL: EIVLTQSPATLSLSPGERATLSCRASQSVSSRYLHWYQQKPGQAPRLLIYGTSNLASGIPARFSGSGSGTDFTLTISRLEPEDFAVYYCHQYSRSPPTFGQGTKVEIKR
B15: RY-HL-LC-C12 FACS4 (IgG4 S228P) (antibody, V domains shown)
VH: B14 VH
VL: B14 VL with G51S, N54R, S93H
B16: RY-LC-A10 FACS5 (IgG4 S228P) (antibody, V domains shown)
VH: B14 VH
VL: B14 VL with G51S, L55R, H90Q, S93H
B17: PA2LR3-P6G7 (chimeric) (antibody, human IgG1, kappa, V domains shown)
VH: B1 VH with Y27F, Y31N, Y60F, K67R, T69I, K74I, S77N
VL: B1 VL with I4L, V11M, Q90H, W92H, S93H, S94R, Y95S, L97P, I107L
B18: PA2LR3-P6B12 (chimeric) (antibody, human IgG1, kappa, V domains shown)
VH: B1 VH with P105A
VL: B1 VL with D1Q, I4L, V11M, Q90H, W92Y, S93H, S94R, Y95S, T98A, I107L

One experiment deals with T1, A138 iCAPS (CB1 with ICL3 native sequence replaced with protein 1 sequence) (human, UniProt P21554 99-414).
T1 construct: The insert stands inside the chain in place of ICL3
T1 sequence (P21554 whole entry): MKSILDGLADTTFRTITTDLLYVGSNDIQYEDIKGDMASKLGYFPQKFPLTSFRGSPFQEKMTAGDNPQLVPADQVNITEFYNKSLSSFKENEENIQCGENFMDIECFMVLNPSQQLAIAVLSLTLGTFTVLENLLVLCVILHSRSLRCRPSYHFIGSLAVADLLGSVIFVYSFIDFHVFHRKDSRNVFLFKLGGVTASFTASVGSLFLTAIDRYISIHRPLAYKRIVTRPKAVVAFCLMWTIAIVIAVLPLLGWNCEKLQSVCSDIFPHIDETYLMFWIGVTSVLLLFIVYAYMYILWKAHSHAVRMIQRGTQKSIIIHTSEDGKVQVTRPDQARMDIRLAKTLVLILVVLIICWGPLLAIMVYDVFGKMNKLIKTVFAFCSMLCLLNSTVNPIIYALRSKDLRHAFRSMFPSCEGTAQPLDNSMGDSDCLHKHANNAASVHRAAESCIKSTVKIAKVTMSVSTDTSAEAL
Kind of experiment: ELISA, purified IgG on A138 CB1 iCAPS. As to the method: (§1) Purified IgG was tested for binding to purified CB1 receptor (CB1 Conformation Antigen Presenting System (iCAPS)) by ELISA. Non-biotinylated antigens (e.g. empty iCAPS) were coated directly on Maxisorp plates. The primary antibodies were purified IgGs with 1:3 serial dilutions, incubated on the plate for 1 hour. After 3 rounds of washing with PBST, secondary antibodies HRP goat anti-mouse IgG (Abmart) or HRP goat anti-human IgG (Sigma), depending on the species of the IgGs were added and incubated for another hour. The plates were washed three times with PBST, then developed with TMB (Biopanda). HCl was added to the plates to stop the reaction. Absorbance at 450 nm was read on Emax precision microplate reader (Molecular Devices).
For the molecule B1, the EC50 was 0.0004 µM.
B2 yielded an EC50 of 0.0014 µM.
On the same count and under the same terms, with B3 the figure was 0.0049 µM.
Same read-out and setting: with B4 the figure was 0.00128 µM.
For B5, the EC50 is 0.00119 µM.
The same measure, in the same setting: with B6 the figure was 0.021 µM.
Regarding B7, a half-maximal effect (EC50) was put at 0.081 µM.
B8 came in with an EC50 of 0.071 µM.
On the same count and under the same terms, as for B9, the figure is 0.01 µM; as for B10, 0.0067 µM.
B11 displayed an EC50 of 0.0013 µM.

The target of the next experiment is T2, mouse CB1 (mouse, UniProt P47746 1-473).
T2 construct: whole, on cells; also called TRexCHO Mouse CB1
T2 sequence (P47746 whole entry): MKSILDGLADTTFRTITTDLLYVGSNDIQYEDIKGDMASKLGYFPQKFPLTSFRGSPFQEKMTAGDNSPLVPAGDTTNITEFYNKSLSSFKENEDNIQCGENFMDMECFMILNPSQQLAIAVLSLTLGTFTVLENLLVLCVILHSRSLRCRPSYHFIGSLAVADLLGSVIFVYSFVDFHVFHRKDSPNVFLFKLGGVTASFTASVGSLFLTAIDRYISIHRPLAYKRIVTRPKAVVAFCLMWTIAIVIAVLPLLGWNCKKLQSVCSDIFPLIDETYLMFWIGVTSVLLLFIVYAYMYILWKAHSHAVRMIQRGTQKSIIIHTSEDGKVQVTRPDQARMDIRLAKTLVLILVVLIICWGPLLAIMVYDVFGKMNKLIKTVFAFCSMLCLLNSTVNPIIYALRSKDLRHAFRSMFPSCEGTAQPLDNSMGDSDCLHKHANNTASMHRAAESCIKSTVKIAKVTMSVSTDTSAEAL
Kind of experiment: flow cytometry on TRex-CHO mouse CB1 cells, lower panel. Here is the method: (§2) After being washed with 200 μl of FACS buffer twice, cells were incubated with PE conjugated anti-human secondary antibody (Southern Biotech) for 30 minutes on ice. Cells were washed with 200 μl of FACS buffer twice and transferred to BD Falcon 5 ml tube and analyzed by flow cytometry (BD FACScalibur).
For B12, the binding result is “no binding (tested: about 300 nM (last point))”.
In the case of B13, the binding result is on record as “no binding (tested: about 300 nM (last point))”.

The target in a further experiment is T3, native full length human CB1 receptor (cannabinoid 1 receptor) (human, UniProt P21554 1-472).
T3 construct: whole, on cells; also called A156; Native human CB1 TRex CHO A156
T3 sequence (P21554 whole entry): as the sequence (P21554 whole entry) above
The experiment can be described thus: flow cytometry, TRex-CHO full length native human CB1 cells; Exp 2. Here is the method:
(§3) After being washed with 200 μL of FACS buffer twice, cells were incubated with secondary antibody for 30 minutes on ice. Cells were washed with 200 μL of FACS buffer twice and transferred to BD Falcon 5 mL tube and analyzed by FACS. Data analysis and measurement of binding affinity (KD) was performed using GraphPad Prism software.
Take B14: binding was characterised by a dissociation constant (Kd) of 0.00919 µM.
On the same count and under the same terms, as for B15, the figure is 0.0139 µM; as for B16, 0.0124 µM.

For another experiment, the target named is T3, native full length human CB1 receptor …. Kind of experiment: cell-based or functional assay.
On to B17, for which the “EC50, cAMP agonist functional assay” value was above 0.3 µM.
As for B18, the “EC50, cAMP assay in the presence of CP55940” value was around 1 µM.
Turning to B3, the “EC50, cAMP agonist functional assay” value is above 0.3 µM.
As for B4, the “EC50, cAMP agonist functional assay” value is above 0.3 µM.

The target in a further experiment is T4, A139 iCAPS (CB1 with ICL3 native sequence replaced with BRIL) (human, UniProt P21554 99-414).
T4 construct: The insert stands inside the chain in place of ICL3
T4 sequence (P21554 whole entry): as above
The experiment can be described thus: ELISA, purified IgG on A139 CB1 iCAPS. Here is the method: as §1
On to B1, for which the EC50 amounted to 0.0004 µM.
B2: the EC50 turned out to be 0.00078 µM.
For the molecule B3, the EC50 worked out at 0.0026 µM.
The same measure, in the same setting: with B4 the figure was 0.00141 µM; with B5, 0.00135 µM; with B6, 0.0335 µM.
The molecule B7 returned an EC50 of 0.035 µM.
Regarding B9, the EC50 was 0.0032 µM.
Still for that read-out and setting: as for B10, the figure is 0.0018 µM.
Same read-out and setting: as for B11, the figure is 0.0011 µM.

The next experiment has as its target T3, native full length human CB1 receptor …. Kind of experiment: flow cytometry, TRex-CHO full length native human CB1 cells; mean. As to the method: as §3
With B14, the Kd turned out to be 0.0103 µM.
B15 displayed an equilibrium dissociation constant (Kd) of 0.0141 µM.
Same read-out and setting: as for B16, the figure is 0.0124 µM.

The next experiment shares this target. Kind of experiment: cell-based or functional assay. The source holds these as a separate data set.
On to B14, for which the “Exp 1 IC50 (nM), cAMP antagonist assay” value worked out at 48 nM; the “Exp 2 IC50 (nM), cAMP antagonist assay” value is 33.9 nM; the “Exp 3 IC50 (nM), cAMP antagonist assay” value is 42.4 nM.
Taken in the same sequence, the figures for B15 were 76.8 nM, 52.5 nM and 43.1 nM.
Taken in the same sequence, the figures for B16 were 120 nM, 62.6 nM and 48.1 nM.

The target is the same in the next experiment. Kind of experiment: flow cytometry, TRex-CHO full length native human CB1 cells; Exp 1. Here is the method: as §3
Molecule B14 had a Kd of 0.0115 µM.
In turn, B15 displayed a Kd of 0.0144 µM.

The target in a further experiment is T5, human CB2 (human, UniProt P34972 1-360).
T5 construct: whole, on cells; also called TRexCHO Human CB2
T5 sequence (P34972 whole entry): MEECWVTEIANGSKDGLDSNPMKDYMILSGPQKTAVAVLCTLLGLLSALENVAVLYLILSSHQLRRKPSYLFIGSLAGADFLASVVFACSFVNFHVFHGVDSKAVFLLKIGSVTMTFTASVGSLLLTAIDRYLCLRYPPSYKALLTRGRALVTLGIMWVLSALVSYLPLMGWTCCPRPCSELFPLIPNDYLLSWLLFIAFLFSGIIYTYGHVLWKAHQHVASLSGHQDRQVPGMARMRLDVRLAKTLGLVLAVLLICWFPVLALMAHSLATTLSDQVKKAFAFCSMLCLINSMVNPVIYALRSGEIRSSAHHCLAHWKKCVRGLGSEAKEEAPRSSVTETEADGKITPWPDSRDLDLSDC
Kind of experiment: flow cytometry on TRex-CHO human CB2 cells, middle panel. As to the method:
as §2
In the case of B12, the binding result was “no binding (tested: about 300 nM (last point))”.
Still for that read-out and setting: with B13 the entry was “no binding (tested: about 300 nM (last point))”.

The record behind these values is patent US20260176352A1 (BIRD ROCK BIO, published 2026).
